Source: the supplement of paper PMC10899765

What was measured:
Conditions in all cases: 20 nM; 72 h
MCF10A [1] = test: 5+ nucleoli phenotype percent effect (relative to siNT 0% and siKIF11 100%); higher = more cells with five or more nucleoli
Method: (§1)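 After 72 h, cells were fixed and stained with Hoechst and anti-fibrillarin, and nucleoli per nucleus were counted with CellProfiler. Values are plate-adjusted percent effect for the one-nucleolus and 5+ nucleoli phenotypes, normalised to siNT (0%) and to the positive controls siNOL11 or siKIF11 (100%), as the mean of biological triplicates. Percent viability is the nuclei count relative to siNT.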

MCF10A [2] = test: one-nucleolus phenotype percent effect (relative to siNT 0% and siNOL11 100%); higher = more cells with one nucleolus (ribosome biogenesis inhibition)
Method: as §1

MCF10A [3] = test: percent viability (nuclei count relative to siNT); higher = more viable cells
Method: as §1

Sequence | 5+ nucleoli phenotype percent effect (MCF10A [1]) [%] | one-nucleolus phenotype percent effect (MCF10A [2]) [%] | percent viability (MCF10A [3]) [%]
CGUGGAGGACGAGGAGGAGGC [hsa-miR-7847-3p] | -7.84 | 4.16 | 67.5
CGUGGAUAUUCCUUCUAUGUUU [hsa-miR-376b-5p] | -14 | 9.58 | 22
CGUGGAUUGUCUGGAUGCAU [hsa-miR-8056] | -25.1 | 12.9 | 41.8
CGUGUAUUUGACAAGCUGAGUU [hsa-miR-223-5p] | -35 | 31.4 | 20
CGUGUCUUCUGGCUUGAU [hsa-miR-4711-3p] | -36.9 | 59.2 | 17.8
CGUGUUCACAGCGGACCUUGAU [hsa-miR-124-5p] | -28.6 | 6.24 | 77.3
CUAAGAAGUUGACUGAAG [hsa-miR-3653] | -37.5 | 49.1 | 42
CUAAUAGUAUCUACCACAAUAAA [hsa-miR-633] | 35.1 | -23.4 | 107
CUACAAAGGGAAGCACUUUCUC [hsa-miR-524-5p] | -38.7 | 17.4 | 41.4
CUACAAAGGGAAGCCCUUUC [hsa-miR-520d-5p] | -47.9 | 28.4 | 39.7
CUACAGGCUGGAAUGGGCUCA [hsa-miR-7151-3p] | 2.37 | 13.6 | 20.6
CUACCCCCCAUCCCCCUGUAG [hsa-miR-6798-3p] | -13.9 | -5.24 | 72.5
CUACCCUCGGUCUGCUUACCACA [hsa-miR-7848-3p] | -35.7 | 25.5 | 41.7
CUACUUCUACCUGUGUUAUCAU [hsa-miR-3682-5p] | -33 | 19.8 | 25.2
CUAGACUGAAGCUCCUUGAGG [hsa-miR-151a-3p] | -6.07 | -1.52 | 66.5
CUAGCACACAGAUACGCCCAGA [hsa-miR-585-5p] | -45.7 | 46 | 36.5
CUAGGAGGCCUUGGCC [hsa-miR-4266] | -14.2 | 7.31 | 52.6
CUAGGUAUGGUCCCAGGGAUCC [hsa-miR-331-5p] | 19 | -17.6 | 111
CUAGGUGGGGGGCUUGAAGC [hsa-miR-6802-5p] | -17 | 9.83 | 33.9
CUAGUGAGGGACAGAACCAGGAUUC [hsa-miR-921] | -15.6 | 31.9 | 48.8

Sequence | 5+ nucleoli phenotype percent effect (MCF10A [1]) [%] | one-nucleolus phenotype percent effect (MCF10A [2]) [%] | percent viability (MCF10A [3]) [%]
CUAGUGCUCUCCGUUACAAGUA [hsa-miR-4473] | 18 | -11.7 | 37.8
CUAUACAACCUACUGCCUUCCC [hsa-let-7b-3p] | -18.8 | 10.1 | 32.4
CUAUACAACUUACUACUUUCCC [hsa-miR-98-3p] | 45.5 | -31.6 | 59.1
CUAUACAAUCUACUGUCUUUC [hsa-let-7a-3p] | 10.6 | -10.4 | 93.9
CUAUACAAUCUAUUGCCUUCCC [hsa-let-7f-1-3p] | -25 | -6.49 | 39.2
CUAUACAGUCUACUGUCUUUCC [hsa-let-7f-2-3p] | 4.65 | -3.58 | 70.8
CUAUACGACCUGCUGCCUUUCU [hsa-let-7d-3p] | 18.1 | -15.3 | 84.7
CUAUACGGCCUCCUAGCUUUCC [hsa-let-7e-3p] | 7.57 | -18.7 | 45
CUAUAUAUCAAACAUAUUCCU [hsa-miR-190a-3p] | 35.7 | -19.5 | 67.4
CUAUGGCGAGACUGGCAUGUACUC [hsa-miR-8074] | 26.4 | -12.8 | 110
CUAUUAAGGACAUUUGUGAUUC [hsa-miR-4477a] | -13.7 | -0.508 | 32.6
CUCAAACCGGCUGUGCCUGUGG [hsa-miR-6715b-3p] | -11.8 | 10 | 62.7
CUCAAGUAGUCUGACCAGGGGA [hsa-miR-4465] | 21.6 | -5.88 | 67
CUCACUCUCAGUCCCUCCCU [hsa-miR-6794-3p] | 27.6 | -18.1 | 88.6
CUCACUGAACAAUGAAUGCAA [hsa-miR-181b-3p] | 22 | -19.6 | 61.5
CUCACUGAUCAAUGAAUGCA [hsa-miR-181b-2-3p] | 9.62 | -19.1 | 144
CUCAGUAGCCAGUGUAGAUCCU [hsa-miR-222-5p] | -14.7 | 14 | 57.4
CUCAGUGACUCAUGUGC [hsa-miR-4276] | -21.3 | 17.5 | 72.6
CUCAUCUGCAAAGAAGUAAGUG [hsa-miR-452-3p] | -40.5 | 48.1 | 21.6
CUCAUUUAAGUAGUCUGAUGCC [hsa-miR-5696] | -2.38 | -11.5 | 125

Sequence | 5+ nucleoli phenotype percent effect (MCF10A [1]) [%] | one-nucleolus phenotype percent effect (MCF10A [2]) [%] | percent viability (MCF10A [3]) [%]
CUCCAGAGGGAAGUACUUUCU [hsa-miR-520a-5p] | -28.3 | 23.8 | 34.6
CUCCAGAGGGAUGCACUUUCU [hsa-miR-525-5p] | -22.1 | 20.6 | 36.5
CUCCCACAUGCAGGGUUUGCA [hsa-miR-188-3p] | 25 | -6.75 | 57.7
CUCCCACUUCCAGAUCUUUCU [hsa-miR-3156-3p] | 12 | -4.85 | 34.1
CUCCCCGGCCUCUGCCCCCAG [hsa-miR-6763-3p] | 39.1 | -28.1 | 96.4
CUCCCCUCUCUUUCCUGUUCAG [hsa-miR-6826-3p] | -9.68 | 0.6 | 52.3
CUCCGGGACGGCUGGGC [hsa-miR-4497] | 0.934 | -8.42 | 67.6
CUCCGUUUGCCUGUUUCGCUG [hsa-miR-1468] | 30.4 | -8.9 | 112
CUCCUACAUAUUAGCAUUAACA [hsa-miR-155-3p] | 6.71 | -5.11 | 119
CUCCUAUAUGAUGCCUUUCUUC [hsa-miR-337-3p] | 2.51 | -11 | 52
CUCCUCCACAGCCCCUGCUCAU [hsa-miR-6792-3p] | -21.5 | -4.72 | 56.4
CUCCUCCCCUGCCUGGCCCAG [hsa-miR-6749-3p] | 0.0227 | -2.87 | 48.8
CUCCUCUGUUUUCUUUCCUAG [hsa-miR-6780a-3p] | -34.9 | 25.3 | 34.4
CUCCUGACUCCAGGUCCUGUGU [hsa-miR-378a-5p] | -8.66 | 10.6 | 25.2
CUCCUGAGCCAUUCUGAGCCUC [hsa-miR-1200] | -30.8 | 27.4 | 58
CUCCUGGGGCCCGCACUCUCGC [hsa-miR-1343] | 7.58 | -9.67 | 66.7
CUCGAGUUGGAAGAGGCG [hsa-miR-4444] | -29.6 | 19.6 | 109
CUCGCCCUGUCUCCCGCUAG [hsa-miR-6726-3p] | 66.4 | -28.4 | 126
CUCGGCCGCGGCGCGUAGCCCCCGCC [hsa-miR-4665-3p] | 22 | -15.1 | 75.2
